Laboratory results from PMC8131929 (The Journal of Biological Chemistry, 2021).

Biological target: RanQ69L(aa1-180)–GTP (UniProt P62826 1-180, Q69L)
Assay: pull-down

B1: His–Xpo 4 (exportin 4, Mus musculus) (natural protein)
chain: not shown
**Q.** Does B1 bind?
**A.** binds
